Test results reported in PMC4705477, “Biochemical Characterization of Nonamer Binding Domain of RAG1 Reveals its Thymine Preference with Respect to Length and Position”.

T1: NBD (nonamer binding domain of RAG1) (mouse, UniProt P15919 384-461)
T1 sequence: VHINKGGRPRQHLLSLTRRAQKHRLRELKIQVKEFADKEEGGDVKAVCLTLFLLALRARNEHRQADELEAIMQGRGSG


The binders below were run against T1, NBD (nonamer binding domain of RAG1) (assay: EMSA; 5 mM Ca2+; NBD EMSA: 10 mM Tris-HCl pH 7.5, 33 mM KCl, 5 mM CaCl2, 2 mM DTT, 0.1 mg/ml BSA, 6% glycerol, 15 min 30 C; cRAG EMSA: 22.5 mM MOPS-KOH pH 7.0, 20% DMSO, 2.2 mM). Details: protein: recombinant; tags: N-terminal His6 (pET28a); label: 5' 32P.

Binder	binding result
CTGTTAAGTTACTCGAAAAAAGCTCGCCCTCAGGTC (ssDNA) [XXXIII, ssDNA lacking T stretch]	no binding
GAGTCTGATCTTACCTCTTATTTTTTTTTTTTTTT (ssDNA) [XXIX, 15 T at 3' end (MS16)]	binds
GAGTCTGATCTTACCTTTTTTTTTTTTTTTTTTTT (ssDNA) [XXX, 20 T at 3' end (MS18)]	binds
poly T 75 (MS6) (ssDNA) DNA: TTTTTTTTTTTTTTTTTTTTTTTTTTTTTTTTTTTTTTTTTTTTTTTTTTTTTTTTTTTTTTTTTTTTTTTTTT	binds
TTTTTTTTTTGAGTCGGATCTTACGTCGTAACTTCGCTAC (ssDNA) [XXXI, 10 T at 5' end (MS22)]	binds
TTTTTTTTTTTTTTTTTTTTTT (ssDNA) [poly T 22 (MS100)]	no binding
TTTTTTTTTTTTTTTTTTTTTTTTTTTT (ssDNA) [poly T 28 (MS101)]	binds
TTTTTTTTTT (ssDNA) [poly T 10 (MS103)]	no binding
TTTTTTTTTTTTTTTT (ssDNA) [poly T 16 (MS102)]	no binding
GAGTCTGATCTTACCTCTTAACTTCGCTACTTTTT (ssDNA) [XXVII, 5 T at 3' end (MS12)]	binds
GAGTCTGATCTTACCTCTTAACTTCTTTTTTTTTT (ssDNA) [XXVIII, 10 T at 3' end (MS14)]	binds

Same assay, conditions: protein: recombinant; tags: N-terminal His6 (pET28a); label: 5' 32P on MN37; blunt

Binder	binding result
random dsDNA MN37/MN38 (XV or XVI) (dsDNA) DNA 1: CCTCTCCCCCTCCCCTCCCCTCCCTCGCGC DNA 2: GCGCGAGGGAGGGGAGGGGAGGGGGAGAGG	no binding

Same assay, conditions: protein: recombinant; tags: N-terminal His6 (pET28a); label: 5' 32P on MN45; blunt

Binder	binding result
random dsDNA MN45/MN46 (XV or XVI) (dsDNA) DNA 1: AGAAGGGGGAGGGGAGGGAGAGAGGGGGCGCCG DNA 2: CGGCGCCCCCTCTCTCCCTCCCCTCCCCCTTCT	no binding

Same assay, conditions: protein: recombinant; tags: N-terminal His6 (pET28a); label: 5' 32P; blunt

Binder	binding result
A/T 22 bp (MS100/DR40) (dsDNA) DNA 1: TTTTTTTTTTTTTTTTTTTTTT DNA 2: AAAAAAAAAAAAAAAAAAAAAA	no binding
A/T 10 bp (MS103/DR38) (dsDNA) DNA 1: TTTTTTTTTT DNA 2: AAAAAAAAAA	no binding
A/T 16 bp (MS102/DR39) (dsDNA) DNA 1: TTTTTTTTTTTTTTTT DNA 2: AAAAAAAAAAAAAAAA	no binding
A/T 28 bp (MS101/DR41) (dsDNA) DNA 1: TTTTTTTTTTTTTTTTTTTTTTTTTTTT DNA 2: AAAAAAAAAAAAAAAAAAAAAAAAAAAA	binds
